Measurements from article PMC11844651, “How RAG1/2 evolved from ancestral transposases to initiate V(D)J recombination without transposition” (Research Square, 2025).

Target: T1, mouse RAG1 (aa 265–1040) (mouse, UniProt P15919 265-1040)
T1 sequence (looked up): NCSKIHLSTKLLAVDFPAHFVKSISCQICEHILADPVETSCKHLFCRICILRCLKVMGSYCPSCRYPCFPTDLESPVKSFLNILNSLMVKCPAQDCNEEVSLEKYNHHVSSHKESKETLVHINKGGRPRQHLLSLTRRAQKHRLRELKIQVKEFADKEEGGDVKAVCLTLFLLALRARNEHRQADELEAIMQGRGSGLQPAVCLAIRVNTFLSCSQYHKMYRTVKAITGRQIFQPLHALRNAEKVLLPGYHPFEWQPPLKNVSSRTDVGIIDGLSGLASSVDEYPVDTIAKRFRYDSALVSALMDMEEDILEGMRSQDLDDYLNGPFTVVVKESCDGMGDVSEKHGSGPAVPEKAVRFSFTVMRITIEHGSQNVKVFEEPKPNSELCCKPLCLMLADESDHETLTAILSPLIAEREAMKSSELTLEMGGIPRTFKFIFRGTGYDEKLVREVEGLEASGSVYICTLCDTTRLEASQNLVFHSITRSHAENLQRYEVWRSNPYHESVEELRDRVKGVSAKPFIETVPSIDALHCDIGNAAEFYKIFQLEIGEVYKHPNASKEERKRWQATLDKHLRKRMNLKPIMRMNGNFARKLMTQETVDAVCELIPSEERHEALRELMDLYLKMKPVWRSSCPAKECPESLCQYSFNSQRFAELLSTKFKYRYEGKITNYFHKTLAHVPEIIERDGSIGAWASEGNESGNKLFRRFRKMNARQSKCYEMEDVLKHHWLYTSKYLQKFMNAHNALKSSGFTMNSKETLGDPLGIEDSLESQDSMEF
Assay: cell-based or functional assay

B1: mouse T490A RAG2 (aa 1–520) (natural protein, UniProt P21784 1-520, looked up)
chain: MSLQMVTVGHNIALIQPGFSLMNFDGQVFFFGQKGWPKRSCPTGVFHFDIKQNHLKLKPAIFSKDSCYLPPLRYPATCSYKGSIDSDKHQYIIHGGKTPNNELSDKIYIMSVACKNNKKVTFRCTEKDLVGDVPEPRYGHSIDVVYSRGKSMGVLFGGRSYMPSTQRTTEKWNSVADCLPHVFLIDFEFGCATSYILPELQDGLSFHVSIARNDTVYILGGHSLASNIRPANLYRIRVDLPLGTPAVNCTVLPGGISVSSAILTQTNNDEFVIVGGYQLENQKRMVCSLVSLGDNTIEISEMETPDWTSDIKHSKIWFGSNMGNGTIFLGIPGDNKQAMSEAFYFYTLRCSEEDLSEDQKIVSNSQTSTEDPGDSTPFEDSEEFCFSAEATSFDGDDEFDTYNEDDEDDESVTGYWITCCPTCDVDINTWVPFYSTELNKPAMIYCSHGDGHWVHAQCMDLEERTLIHLSEGSNKYYCNEHVQIARALQAPKRNPPLQKPPMKSLHKKGSGKVLTPAKKS
- RSS DNA hairpinning (pre-nicked RSS substrates) with the long (21 aa) H3K4me3 peptide (1 μM) against no peptide: < 2 fold
- transposition of SEC into supercoiled pUC19 (double-ended joint product) with the long (21 aa) H3K4me3 peptide (20 μM) against no peptide: 22 fold
